In experiment [1] the test system is cumulus cells. The experiment can be described thus: Staurosporine-induced cumulus cell apoptosis in OOX (TUNEL). It counts as cell-based, Bovine. As to conditions: for incidence of CC apoptosis: OOX alone, without 41%; for CC apoptosis of treated OOX exposed to staurosporine: 10% BMP-15 or 10 ng/ml BMP-6. On the procedure: CC apoptoic DNA was detected using TUNEl (Roche Diagnostic, Penzberg, Germany) according to the manufacturer's instructions. […] Complexes were then permeabilized in 0.11/u Triton X-100 in 0.1% sodium citrate for 1 hour at room temperature and washed 3 times in PBS/BSA. The complexes were then incubated in fluorescein-conjugated dUTP and terminal deoxynucleotide transferase (TUNEl reagents, Roche) for 1 hour at 37° C. in the dark. Positive controls were incubated in DNAse 1 (0.005 U/µl), which cleaves all DNA, for 20 minutes at room temperature and washed twice in PBS/BSA before TUNEl. Negative controls were incubated in fluorescein-dUTP in the absence of TdT. After TUNEl, complexes were washed twice in PBS/BSA and counterstained with propidium iodide 0.5 μg/ml (PI) plus RNase A (0.1 mg/ml) for 1 hour at room temperature in the dark to label all nuclei. Complexes were then washed twice in PBS/BSA and mounted with slight coverslip compression in VectaShield anti-bleaching solution (Vector labs, Burlingame, Calif.), and stored in the dark at 4° C. for confocal analysis. […] These optical section images were acquired and saved as independent colour channels (green, apoptotic cumulus fluorescence and red, nuclear cumulus fluorescence). The captured images were then processed in Scanalytics IPlab software Version 3.6. (Scanalytics, Fairfax, Va.). Quantification of CC number (for each colour channel) was independently measured using a macro script utilizing an auto segmentation filter for each optical section percentile (3 optical “z”-plane sections for each complex). A percentage of apoptotic nuclei were generated for each slice and the three percentile values were then averaged to achieve a representation of the total apoptotic nuclei percentage for the whole complex. These processes were repeated separately on each individual complex. A preliminary experiment was conducted to determine the apoptotic effect of staurosporine on bovine CC, which induced apoptosis in a dose-dependent manner (range; 0.1-100 μM, data not shown). The aim of this experiment was to determine whether OSF could prevent CC from undergoing apoptosis induced by staurosporine. OOX alone or co-cultured with 35 DO, 10 ng/ml BMP-6 or 10% (v/v) BMP-15, and were then exposed to either 0.1 μM or 1.0 μM staurospourine for the last 6 hours of the 24 hour incubation period. Three replicates of this experiment were carried out using 10 OOX per treatment group per replicate experiment.

The subject of experiment [2] is cumulus cells. The experiment can be described thus: Cumulus cell apoptosis in oocytectomized complexes (OOX) and COC, TUNEL with confocal microscopy. It counts as cell-based, Bovine. On the procedure:
Bovine ovaries were collected from local abattoir and transported to the laboratory in warm saline (30-35° C.). Cumulus-oocyte complexes (COC) were aspirated from antral follicles (2- to 8-mm diameter) using an 18-gauge needle and a 10-ml syringe containing ˜2 ml aspiration media (Hepes-buffered Tissue Cultured Medium-199: TCM-199, ICN Biochemicals, Irvine, Calif., USA) supplemented with 50 μg/ml kanamycin (Sigma-Aldrish, St. louis, Mo.), 4 mg/ml fatty acid-free bovine serum albumin (FAF-BSA) (ICPbio ltd, Auckland, NZ). Intact COC with compact cumulus vestment greater than five cell layers and evenly pigmented cytoplasm were selected under a dissecting microscope and washed twice in Hepes-buffered TCM-199 and once in corresponding culturing media.
The cytoplasm of each oocyte was microsurgically removed from the COC (oocytectomy) using a micromanipulator as described in Buccione et al (Buccione et al. (1990) Dev Biol 138, 16-25.). The resulting oocytectomized complex (OOX) consists of a hollow zona pellucida surrounded by several layers of intact CC.
Denuded oocytes (DO) were generated by removing CC from COC by vortexing for approximately 4 minutes in 2 ml H-TCM-199/BSA. Any remaining CC were removed by repeated passage of the oocytes through a fine-bore fire-polished glass pipette in H-TCM-199/BSA.
CC apoptoic DNA was detected using TUNEl (Roche Diagnostic, Penzberg, Germany) according to the manufacturer's instructions. Briefly, following culture COC and OOX complexes were washed twice in PBS (pH 7.4) containing 1% BSA, fixed in 4% paraformaldehyde in PBS (pH 7.4) overnight at 4° C. and washed twice with PBS/BSA before placing on Cell-Tak-coated coverslips (Beckton Dickinson Biosciences, Franklin lakes, N.J.). Complexes were then permeabilized in 0.11/u Triton X-100 in 0.1% sodium citrate for 1 hour at room temperature and washed 3 times in PBS/BSA. The complexes were then incubated in fluorescein-conjugated dUTP and terminal deoxynucleotide transferase (TUNEl reagents, Roche) for 1 hour at 37° C. in the dark. Positive controls were incubated in DNAse 1 (0.005 U/µl), which cleaves all DNA, for 20 minutes at room temperature and washed twice in PBS/BSA before TUNEl. Negative controls were incubated in fluorescein-dUTP in the absence of TdT. After TUNEl, complexes were washed twice in PBS/BSA and counterstained with propidium iodide 0.5 μg/ml (PI) plus RNase A (0.1 mg/ml) for 1 hour at room temperature in the dark to label all nuclei. Complexes were then washed twice in PBS/BSA and mounted with slight coverslip compression in VectaShield anti-bleaching solution (Vector labs, Burlingame, Calif.), and stored in the dark at 4° C. for confocal analysis.
Apoptosis in COC and OOX was visualised and quantified using confocal microscopy. Dual fluorescence emission from CC was detected using a Nikon C1 Confocal Scanning Head and a Nikon TE2000E microscope (Nikon, Tokyo, Japan). Simultaneous emission capture of the apoptotic signal (fluorescein, lacer excitation 488 nm, emission 510-530 nm) and the nuclear signal (propidium iodide, excitation lacer 532, emission 590-640 nm) was performed.
In order to generate an accurate representation of the overall apoptotic incidence for all complexes, the depth of each complex was measured through a Z series to divide the construct into three percentiles (optical Z plane sections) at 25%, 50% and 75%. These optical section images were acquired and saved as independent colour channels (green, apoptotic cumulus fluorescence and red, nuclear cumulus fluorescence). The captured images were then processed in Scanalytics IPlab software Version 3.6. (Scanalytics, Fairfax, Va.). Quantification of CC number (for each colour channel) was independently measured using a macro script utilizing an auto segmentation filter for each optical section percentile (3 optical “z”-plane sections for each complex).

Experiment [3] relates to cumulus expansion of oocytectomised (OOX) complexes. The experiment can be described thus: FSH-induced cumulus expansion score of OOX complexes. It counts as cell-based, mice. As to conditions: score 0 (no expansion) to +4 (maximum expansion); mean ±SEM; OOX complexes with FSH. How it is done:
Members of the TGF-β superfamily are prime candidates for the mouse cumulus expansion-enabling factor (CEEF). This study was conducted to examine TGF-β superfamily processes regulating cumulus expansion. COCs were collected from eGG-primed mice and the oocyte microsurgically removed to generate oocytectomised (OOX) complexes. […] The type-I receptors for GDF9 and […] are ALK5 and ALK4, respectively. We tested the ability of an ALK4/5/7 kinase inhibitor to neutralize cumulus expansion.

Turning to `CN[C@@H]1C[C@H]2O[C@@](C)([C@@H]1OC)n1c3ccccc3c3c4c(c5c6ccccc6n2c5c31)C(=O)NC4` [staurosporine, reference compound], the “incidence of CC apoptosis” value in the experiment with cumulus cells [1] (0.1 μM staurosporine for the last 6 h of 24 h) worked out at 51%; in the experiment on cumulus cells [1] (1.0 μM staurosporine for the last 6 h of 24 h), 74%.

B1: gremlin: BMP antagonist (BMP-2, BMP-4, BMP-7) obtained from R&D systems (protein, UniProt O60565 25-184, looked up)
Gremlin-1: KKKGSQGAIPPPDKAQHNDSEQTQSPQQPGSRNRGRGQGRGTAMPGEEVLESSQEALHVTERKYLKRDWCKTQPLKQTIHEEGCNSRTIINRFCYGQCNSFYIPRHIRKEEGSFQSCSFCKPKKFTTMMVTLNCPELQPPTKKKRVTRVKQCRCISIDLD
On to B1, for which, in the experiment with cumulus cells [2] (OOX + 100 ng/ml BMP-7, 2 μg/ml gremlin, not when BMP-15 was present), the “antagonism of the inhibitory effect of BMP-7 on CC apoptosis” value is on record as “significantly (P<0.001) reversed”. Also, the “apoptosis of BMP-15-treated OOXs with antagonist” value with cumulus cells [2] (OOX + 10% BMP-15, increasing dose of gremlin (0-40 μg/ml)) was “not significantly increased”.

B2: BMP-6: Recombinant human BMP-6 obtained from R&D systems (protein, UniProt P22004 375-513, looked up)
Bone morphogenetic protein 6: SASSRRRQQSRNRSTQSQDVARVSSASDYNSSELKTACRKHELYVSFQDLGWQDWIIAPKGYAANYCDGECSFPLNAHMNATNHAIVQTLVHLMNPEYVPKPCCAPTKLNAISVLYFDDNSNVILKKYRNMVVRACGCH
As to B2, in the experiment with cumulus cells [2] (OOX cultured with increasing doses (GDF-9 0-175 ng/ml, BMP-6 0-100 ng/ml, BMP-15 0-20% v/v, 5-50 DO), presence or absence of FSH), the “effect on incidence of cumulus cell apoptosis” value is “significantly decreased”. In the experiment with cumulus cells [2] (OOX treated with DO, 10 ng/ml BMP-6 and/or 10% v/v BMP-15), the “effect on CC apoptosis, test for additive effect” value is reported as “significantly (P<0.001) decreased”. Moreover, the entries for the “CC apoptosis of treated OOX exposed to staurosporine” value in the experiment with cumulus cells [1] (0.1 μM staurosporine) and with cumulus cells [1] (1 μM staurosporine) were 21% and 31%, respectively.

B3: activin A: TGF-β superfamily member, ligand of ALK4 (protein, UniProt P08476 311-426, looked up)
Inhibin beta A chain: GLECDGKVNICCKKQFFVSFKDIGWNDWIIAPSGYHANYCEGECPSHIAGTSGSSLSFHSTVINHYRMRGHSPFANLKSCCVPTKLRPMSMLYYDDGQNIIKKDIQNMIVEECGCS
modifications: Inhibin beta A chain
notes: TGF-β superfamily member, ligand of ALK4
The molecule B3 showed a cumulus expansion score in experiment [3] of 2.6±0.1.

The values are drawn from US8530235B2, “Medium that supports culture of an oocyte and modulation of granulosa cell apoptosis” (Adelaide Research & Innovation Pty Ltd., priority 2005, dated 2013).
